Results from US20200283482A1, “BICYCLIC PEPTIDE LIGAND PRR-A CONJUGATES AND USES THEREOF” (BicycleRD Limited, priority 2017, published 2020).
Starred links: 1 amine or outer side, 2 acyl side, 3 side chain; linkers in the order of their positions; H or OH if unused. Positions of bridges follow the written chain, without caps; N, C: chain ends. Non-standard residues stand in square brackets, D forms with d. Residues, ends and D or L forms follow the SMILES beside them. *: point of attachment. X1 = CCOCc1nc2c(NC(=O)OCCSSC(C)CCC(=O)*)nc3ccccc3c2n1CC(C)(C)O; 1Nal = N[C@@H](Cc1cccc2ccccc12)C(=O)O; TBMB = c1c(C[*:1])cc(C[*:3])cc1C[*:2]; Tle = CC(C)(C)[C@H](N)C(=O)O; βAla = NCCC(=O)O; Sar = CNCC(=O)O

Assays:
human TLR8 = target: T1, human TLR8 (Homo sapiens, UniProt Q9NR97); test: Human TLR8 receptor activation, HEK293 reporter cell line; type: cell-based; conditions: HEK293 reporter cells, 16 hours
T1 construct: host or cells: HEK293 reporter cell line
T1 sequence (Q9NR97 27-1041): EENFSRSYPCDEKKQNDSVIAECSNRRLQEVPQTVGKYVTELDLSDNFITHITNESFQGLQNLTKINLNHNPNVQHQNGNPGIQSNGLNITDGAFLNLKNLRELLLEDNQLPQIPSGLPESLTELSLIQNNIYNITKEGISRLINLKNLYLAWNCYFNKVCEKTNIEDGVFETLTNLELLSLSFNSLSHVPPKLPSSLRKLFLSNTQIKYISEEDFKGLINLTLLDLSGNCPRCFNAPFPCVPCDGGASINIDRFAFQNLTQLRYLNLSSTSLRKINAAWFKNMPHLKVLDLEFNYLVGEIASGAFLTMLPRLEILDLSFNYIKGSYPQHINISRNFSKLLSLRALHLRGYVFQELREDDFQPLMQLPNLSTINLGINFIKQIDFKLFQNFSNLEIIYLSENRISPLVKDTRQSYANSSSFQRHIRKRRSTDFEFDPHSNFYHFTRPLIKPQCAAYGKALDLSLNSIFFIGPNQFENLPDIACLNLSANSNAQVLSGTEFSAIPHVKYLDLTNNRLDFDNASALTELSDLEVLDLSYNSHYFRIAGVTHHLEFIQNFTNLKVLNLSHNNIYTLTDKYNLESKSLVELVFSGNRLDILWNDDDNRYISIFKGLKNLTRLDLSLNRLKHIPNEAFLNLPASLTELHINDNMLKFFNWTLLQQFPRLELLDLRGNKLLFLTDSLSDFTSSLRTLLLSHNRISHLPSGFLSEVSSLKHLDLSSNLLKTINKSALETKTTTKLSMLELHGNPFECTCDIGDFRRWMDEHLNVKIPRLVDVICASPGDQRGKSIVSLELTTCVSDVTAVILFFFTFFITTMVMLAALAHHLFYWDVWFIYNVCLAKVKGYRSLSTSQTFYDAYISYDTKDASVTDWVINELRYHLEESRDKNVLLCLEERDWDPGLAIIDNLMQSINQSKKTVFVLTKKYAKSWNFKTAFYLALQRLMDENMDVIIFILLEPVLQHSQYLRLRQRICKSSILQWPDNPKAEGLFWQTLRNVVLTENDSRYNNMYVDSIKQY
Experimental: Compounds were tested for their activity to activate human TLR7 and TLR8 receptors using HEK293 reporter cell lines engineered to express respective receptors in accordance to manufacturer's instructions (InvivoGen). […] Incubation was for 16 hours at 37° C. and […]. Absorption at 655 nm was read on […]. Data was fitted using PRISM.

Plasma stability, human = type: in vitro ADME; conditions: pH 7.4; human plasma, 2 μM, 37° C.; read-out: T1/2 (human)
Plasma stability, mouse = type: in vitro ADME; conditions: pH 7.4; mouse plasma, 2 μM, 37° C.; read-out: T1/2 (mouse)
[1] = Plasma pharmacokinetics of Bicycle conjugates in CD-1 mice; type: in vivo; conditions: 3 mg/kg IV, male CD-1 mice
Experimental: Male CD-1 mice were dosed with 3 mg/kg of Bicycle Conjugate formulated in 25 mM Histidine HCl, 10% sucrose pH 7 via tail vein injection. Serial bleeding (about 80 μL blood/time point) was performed via submadibular or saphenous vein at each time point. All blood samples were immediately transferred into prechilled microcentrifuge tubes containing 2 μL K2-EDTA (0.5M) as anti-coagulant and placed on wet ice.

In the case of `CCOCc1nc2c(NC(=O)OCCSSC(C)CCC(=O)NCCC(=O)N(C)CC(=O)N(C)CC(=O)N(C)CC(=O)N(C)CC(=O)N(C)CC(=O)N(C)CC(=O)N(C)CC(=O)N(C)CC(=O)N(C)CC(=O)N(C)CC(=O)N[C@@H](C)C(=O)N[C@H]3CSCc4cc5cc(c4)CSC[C@H](NC(=O)[C@@H](C)NC(=O)[C@H](Cc4cccc6ccccc46)NC(=O)[C@H](CCC(=O)O)NC(=O)[C@H](CC(N)=O)NC(=O)[C@@H](C)NC3=O)C(=O)N[C@@H](CCC(=O)O)C(=O)N[C@@H](CC(=O)O)C(=O)N[C@@H](Cc3ccccc3)C(=O)N[C@@H](Cc3ccc(O)cc3)C(=O)N[C@@H](CC(=O)O)C(=O)N[C@@H](C(C)(C)C)C(=O)N[C@H](C(N)=O)CSC5)nc3ccccc3c2n1CC(C)(C)O` (stereo partly shown) [I-8] ({X1-βAla}-[Sar][Sar][Sar][Sar][Sar][Sar][Sar][Sar][Sar][Sar]AC[dA]NE[1Nal][dA]CEDFYD[Tle]C-NH2; linker 12-18-25 via TBMB), the “hTLR8 activation potency versus naked payload resiquimod” value (human TLR8) is reported as “considerably reduced potency or inactivity”, the half-life at 2 μM (Plasma stability, human) is reported as 2 to 6 h and the half-life at 2 μM (Plasma stability, mouse) is reported as under 2 h. For the same compound, the systemic elimination [1] was “rapid systemic elimination”.
